# B1: Chromodomain-helicase-DNA-binding protein 1-like (Homo sapiens), Q86WJ1-1 (parent)
# chain: MERAGATSRGGQAPGFLLRLHTEGRAEAARVQEQDLRQWGLTGIHLRSYQLEGVNWLAQRFHCQNGCILGDEMGLGKTCQTIALFIYLAGRLNDEGPFLILCPLSVLSNWKEEMQRFAPGLSCVTYAGDKEERACLQQDLKQESRFHVLLTTYEICLKDASFLKSFPWSVLVVDEAHRLKNQSSLLHKTLSEFSVVFSLLLTGTPIQNSLQELYSLLSFVEPDLFSKEEVGDFIQRYQDIEKESESASELHKLLQPFLLRRVKAEVATELPKKTEVVIYHGMSALQKKYYKAILMKDLDAFENETAKKVKLQNILSQLRKCVDHPYLFDGVEPEPFEVGDHLTEASGKLHLLDKLLAFLYSGGHRVLLFSQMTQMLDILQDYMDYRGYSYERVDGSVRGEERHLAIKNFGQQPIFVFLLSTRAGGVGMNLTAADTVIFVDSDFNPQNDLQAAARAHRIGQNKSVKVIRLIGRDTVEEIVYRKAASKLQLTNMIIEGGHFTLGAQKPAADADLQLSEILKFGLDKLLASEGSTMDEIDLESILGETKDGQWVSDALPAAEGGSRDQEEGKNHMYLFEGKDYSKEPSKEDRKSFEQLVNLQKTLLEKASQEGRSLRNKGSVLIPGLVEGSTKRKRVLSPEELEDRQKKRQEAAAKRRRLIEEKKRQKEEAEHKKKMAWWESNNYQSFCLPSEESEPEDLENGEESSAELDYQDPDATSLKYVSGDVTHPQAGAEDALIVHCVDDSGHWGRGGLFTALEKRSAEPRKIYELAGKMKDLSLGGVLLFPVDDKESRNKGQDLLALIVAQHRDRSNVLSGIKMAALEEGLKKIFLAAKKKKASVHLPRIGHATKGFNWYGTERLIRKHLAARGIPTYIYYFPRSKSAVLHSQSSSSSSRQLVP
# Variants of: B1
# Settings: with parp1_human PARP1, P09874
# parp1_human PARP1, P09874, sequence (P09874 whole entry): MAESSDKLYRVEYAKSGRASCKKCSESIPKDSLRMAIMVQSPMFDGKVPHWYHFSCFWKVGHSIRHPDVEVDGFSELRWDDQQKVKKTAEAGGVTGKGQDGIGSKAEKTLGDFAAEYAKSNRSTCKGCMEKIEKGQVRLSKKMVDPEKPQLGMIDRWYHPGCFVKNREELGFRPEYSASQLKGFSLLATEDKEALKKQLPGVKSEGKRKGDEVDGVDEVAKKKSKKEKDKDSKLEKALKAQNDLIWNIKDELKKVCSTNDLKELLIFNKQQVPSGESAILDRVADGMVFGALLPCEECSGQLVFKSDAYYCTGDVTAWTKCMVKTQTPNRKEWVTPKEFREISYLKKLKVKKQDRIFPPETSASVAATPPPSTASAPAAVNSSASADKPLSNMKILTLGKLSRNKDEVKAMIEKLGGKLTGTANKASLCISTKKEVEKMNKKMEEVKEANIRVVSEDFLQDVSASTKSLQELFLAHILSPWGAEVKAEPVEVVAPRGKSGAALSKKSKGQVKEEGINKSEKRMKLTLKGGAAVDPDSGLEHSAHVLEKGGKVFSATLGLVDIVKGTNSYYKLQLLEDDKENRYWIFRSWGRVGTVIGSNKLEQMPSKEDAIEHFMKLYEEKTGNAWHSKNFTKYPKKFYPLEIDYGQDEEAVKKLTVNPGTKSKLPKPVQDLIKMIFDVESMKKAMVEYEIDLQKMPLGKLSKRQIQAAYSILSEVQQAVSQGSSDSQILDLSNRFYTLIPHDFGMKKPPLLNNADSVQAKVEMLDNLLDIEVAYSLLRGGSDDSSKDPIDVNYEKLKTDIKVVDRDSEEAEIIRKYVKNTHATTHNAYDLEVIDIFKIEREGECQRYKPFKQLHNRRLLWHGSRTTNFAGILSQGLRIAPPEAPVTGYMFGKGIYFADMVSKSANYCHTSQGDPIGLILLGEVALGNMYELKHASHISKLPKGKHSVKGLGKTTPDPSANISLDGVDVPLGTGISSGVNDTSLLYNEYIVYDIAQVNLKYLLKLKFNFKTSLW
row,effect of a mutation on the interaction,Variant
1,disrupting interaction,E175Q
2,disrupting interaction,D723A

# Source: IntAct's records for PubMed 19666485
